Data as given in patent publication US20080207503A1, “Composition and Treatment Methods for Coronary Artery Disease” (priority 2005, published 2008).

Test: Sphingomyelinase treatment of ICP (hydrolysis of SPM, TLC, cholesterol release)
Format: biochemical, human
Protocol: FIG. 7A show the effect of hydrolyzing SPM on ICP by sphingomyelinase on the ICP SPM to PC ratio. Following incubation of ICP in 0.25 M Tris buffer containing 20 mM MgCl2 with 50 units of bacterial sphingomyelinase for 6 hrs at 37° C., the reaction of sphingomyelinase was stopped by adding EDTA and a subsequent wash. A change in the SPM to PC ratio of insoluble ICP was examined by TLC. SPM to PC ratios of control ICP (top) and sphingomyelinase-treated ICP (bottom) were 1.69 and 0.49, respectively.
FIG. 7B show the effect of hydrolyzing SPM on ICP by sphingomyelinase on the release of ICP cholesterol by apo HDL or R-HDL. ICP sphingomyelinase treatment was as described in FIG. 7A. Release of cholesterol from control or sphingomyelinase-treated ICP was then measured after incubation of ICP at ICP FC to apo HDL ratio=1:2.5 or ICP FC to R-HDL PC ratio of 1:10.
Treatment of ICP with bacterial sphingomyelinase hydrolyzed 70% of ICP SPM. […] Rather, the release of ICP cholesterol into TBS, apo HDL, or R-HDL was reduced by prior sphingomyelinase treatment of ICP (FIG. 7B). As a model of ICP, artificial multilamellar SPM vesicles enriched with FC (SPM/FC ratio=1) or containing no FC (control SPM) were incubated with R-HDL. Then, PC and SPM content in residual insoluble multilamellar SPM vesicles and solubilized vesicles were determined by TLC (FIG. 7C). After incubation of FC-enriched multilamellar SPM vesicles (SPM/FC+, FIG. 7C, lane 1) with R-HDL (lane 4), insoluble multilamellar vesicles contained not only SPM but also PC (lane 2), while the soluble fraction contained only PC (lane 3). In contrast, following incubation of FC-free multilamellar SPM vesicles (SPM/FC−, lane 5) with R-HDL (lane 8), the residual insoluble multilamellar vesicles contained SPM and no PC (lane 6), and the upper soluble fraction contained both SPM and PC (lane 7).

B1: bacterial sphingomyelinase: Bacterial (Bacilus cereus) sphingomyelinase from Sigma (protein, UniProt P09599 28-333, looked up)
Sphingomyelinase C: DTSTDQNNTLKVMTHNVYMLSTNLYPNWGQSQRADLIGAADYIKNQDVVILNEVFDNSASDRLLGNLKKEYPNQTAVLGRSNGNEWDKTLGSYSSSTPEDGGVAIVSKWPIVEKIQYVFAKGCGPDNLSNKGFVYTKIKKNDRFVHVIGTHLQAEDSMCGKTSPASVRTNQLKEIQDFIKNKNIPNDEYVLFGGDMNVNKINAENNSDSEYASMFKTLHASIPSYTGHTATWDATTNSIAKYNFPDSPAEYLDYIIASKDHANPSFIENKVLQPKSPQWTVTSWLKKYTYDDYSDHYPVAATISMK
ICP SPM hydrolyzed (50 units bacterial sphingomyelinase, 6 hrs, 37° C.): 70%
release of ICP cholesterol into TBS, apo HDL or R-HDL after prior sphingomyelinase treatment (in words) (FIG. 7B): reduced
ICP SPM/PC ratio after sphingomyelinase treatment (control ICP 1.69 / 1.6, TLC): 0.49
